One assay has as its target T1, AtNF-YC4-cYFP (Arabidopsis thaliana, UniProt Q9FMV5 1-250).
T1 construct: BiFC construct expressed in tobacco leaves; AtNF-YC4 is fused in-frame to the N-terminus of cYFP; not shown: cYFP (C-terminal end of yellow fluorescent protein)
T1 sequence (looked up): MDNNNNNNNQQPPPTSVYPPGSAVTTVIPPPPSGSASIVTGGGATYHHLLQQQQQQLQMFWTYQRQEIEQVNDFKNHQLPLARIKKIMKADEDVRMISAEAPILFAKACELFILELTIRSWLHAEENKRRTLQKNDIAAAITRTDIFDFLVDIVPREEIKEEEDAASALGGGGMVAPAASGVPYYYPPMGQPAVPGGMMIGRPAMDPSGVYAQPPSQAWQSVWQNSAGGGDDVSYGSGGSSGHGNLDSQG
The assay is described as follows: in vivo co-expression in tobacco leaf. The method, then: QQS and AtNF-YC4 were fused in-frame to the N-terminus of nYFP (N-terminal end of yellow fluorescent protein (YFP)) and cYFP (C-terminal end of YFP), respectively. Agrobacterium strain GV3101 transformed with QQS-nYFP and AtNF-YC4-cYFP constructs were co-infiltrated into Nicotiana tabacum. The reconstituted YFP signal was observed 48 h after infiltration under a Zeiss Axioplan II fluorescence microscope.

In assay [1] the target is T2, Arabidopsis Nuclear Factor YB7 (AtNF-YB7), recombinant, tagged, for pull-down (Arabidopsis, UniProt Q9SIT9 1-215).
T2 construct: Contains a histone-fold-like domain; also called AtNF-YB7-GST fusion protein
T2 sequence (looked up): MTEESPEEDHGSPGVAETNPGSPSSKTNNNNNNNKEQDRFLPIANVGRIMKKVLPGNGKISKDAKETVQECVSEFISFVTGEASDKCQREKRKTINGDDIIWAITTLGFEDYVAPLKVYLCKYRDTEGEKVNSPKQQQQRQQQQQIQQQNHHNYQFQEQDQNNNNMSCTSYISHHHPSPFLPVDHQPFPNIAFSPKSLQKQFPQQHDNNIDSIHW
Put plainly: GST pull-down.

No end group written: not given here. nYFP = N-terminal end of yellow fluorescent protein

B1: QQS-nYFP (other)
chain: MKTNREQEIYVERSFKPNNSTIQNLMDIERFILPHTSTSGVARLKMRVISWVGLQFYNY-nYFP
modifications: also: nYFP limits and sequence not given here
notes: BiFC construct expressed in tobacco leaves; QQS is fused in-frame to the N-terminus of nYFP; not shown: nYFP (N-terminal end of yellow fluorescent protein)
Consider B1, for which the binding result with AtNF-YC4-cYFP is “binds”.

B2: GST-QQS fusion protein (other)
chain: MKTNREQEIYVERSFKPNNSTIQNLMDIERFILPHTSTSGVARLKMRVISWVGLQFYNY
modifications: also: fused to GST tag, position and linker not given here
notes: also called GST-tagged QQS; not shown: glutathione-S-transferase (GST) tag
As to B2, the binding result in assay [1] is reported as “no binding”.

The record behind these values is patent US20260139263A1 (IOWA STATE UNIVERSITY RESEARCH FOUNDATION, published 2026).
